Measurements as given in patent US20210063414A1, “METHODS FOR PREVENTING AND/OR TREATING BONE LOSS CONDITIONS BY MODULATING IRISIN” (Dana-Farber Cancer Institute, Inc., priority 2018, published 2021).

Legend:
Test in all cases: Crosslinking/co-immunoprecipitation/mass spectrometry (TMT quantitative proteomics) to identify irisin receptors
Assay type in all cases: binding
[1] = target: T1, MLO-Y4 cell surface proteins (Mus musculus, UniProt O35143); settings: co-precipitated protein Atpif1 (ATIF1_MOUSE)
T1 construct: endogenous in cells; host or cells: MLO-Y4
T1 sequence (O35143 26-106): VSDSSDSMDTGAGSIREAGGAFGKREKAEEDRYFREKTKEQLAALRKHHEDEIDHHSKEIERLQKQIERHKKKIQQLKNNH
Procedure, shortened: (§1)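 Mouse MLO-Y4 cells were switched to serum-free FreeStyle medium for 4 h, chilled, then exposed to 10 nM His-tagged irisin (or adipsin as control) for 20 min. Cells were crosslinked with 1.5 mM DTSSP (30 min, ice), and bound proteins were pulled down on Ni-NTA and eluted with 250 mM imidazole. Eluates were separated by SDS-PAGE, trypsin-digested in gel, TMT 6-plex labelled and quantified by MS3-based LC-MS/MS on an Orbitrap Fusion Lumos.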

[2] = target: T2, MLO-Y4 cell surface proteins (Mus musculus, UniProt P16460); settings: co-precipitated protein Ass1 (ASSY_MOUSE)
T2 construct: endogenous in cells; host or cells: MLO-Y4
T2 sequence (P16460 1-412): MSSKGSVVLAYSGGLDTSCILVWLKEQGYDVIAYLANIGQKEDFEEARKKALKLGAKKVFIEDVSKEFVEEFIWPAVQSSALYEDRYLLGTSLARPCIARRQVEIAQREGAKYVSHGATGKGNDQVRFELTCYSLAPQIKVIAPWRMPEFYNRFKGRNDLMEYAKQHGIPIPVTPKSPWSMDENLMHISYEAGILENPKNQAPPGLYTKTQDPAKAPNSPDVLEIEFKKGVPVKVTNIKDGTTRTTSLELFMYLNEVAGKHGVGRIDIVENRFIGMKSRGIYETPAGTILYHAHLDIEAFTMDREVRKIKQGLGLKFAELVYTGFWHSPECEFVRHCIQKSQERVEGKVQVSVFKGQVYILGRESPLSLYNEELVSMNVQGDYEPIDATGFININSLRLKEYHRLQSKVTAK
Procedure, shortened: as §1

[3] = target: T3, MLO-Y4 cell surface proteins (Mus musculus, UniProt P60843); settings: co-precipitated protein Eif4a1 (IF4A1_MOUSE)
T3 construct: endogenous in cells; host or cells: MLO-Y4
Procedure, shortened: as §1

[4] = target: T4, MLO-Y4 cell surface proteins (Mus musculus, UniProt P62737); settings: co-precipitated protein Acta2 (ACTA_MOUSE)
T4 construct: endogenous in cells; host or cells: MLO-Y4
Procedure, shortened: as §1

[5] = target: T5, MLO-Y4 cell surface proteins (Mus musculus, UniProt P62880); settings: co-precipitated protein Gnb2 (GBB2_MOUSE)
T5 construct: endogenous in cells; host or cells: MLO-Y4
Procedure, shortened: as §1

[6] = target: T6, MLO-Y4 cell surface proteins (Mus musculus, UniProt Q6ZQ93); settings: co-precipitated protein Usp34 (UBP34_MOUSE)
T6 construct: endogenous in cells; host or cells: MLO-Y4
Procedure, shortened: as §1

T5 sequence (P62880 whole entry): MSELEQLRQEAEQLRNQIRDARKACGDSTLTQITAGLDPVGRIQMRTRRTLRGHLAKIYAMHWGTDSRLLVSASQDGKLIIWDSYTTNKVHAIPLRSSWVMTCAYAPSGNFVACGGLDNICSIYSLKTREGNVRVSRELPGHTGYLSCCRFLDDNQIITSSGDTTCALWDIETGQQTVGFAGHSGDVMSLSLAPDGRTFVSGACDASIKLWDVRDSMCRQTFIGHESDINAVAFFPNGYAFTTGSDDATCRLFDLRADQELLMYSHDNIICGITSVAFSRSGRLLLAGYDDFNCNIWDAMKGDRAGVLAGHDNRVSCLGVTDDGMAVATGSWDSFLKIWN
T3 sequence (P60843 whole entry): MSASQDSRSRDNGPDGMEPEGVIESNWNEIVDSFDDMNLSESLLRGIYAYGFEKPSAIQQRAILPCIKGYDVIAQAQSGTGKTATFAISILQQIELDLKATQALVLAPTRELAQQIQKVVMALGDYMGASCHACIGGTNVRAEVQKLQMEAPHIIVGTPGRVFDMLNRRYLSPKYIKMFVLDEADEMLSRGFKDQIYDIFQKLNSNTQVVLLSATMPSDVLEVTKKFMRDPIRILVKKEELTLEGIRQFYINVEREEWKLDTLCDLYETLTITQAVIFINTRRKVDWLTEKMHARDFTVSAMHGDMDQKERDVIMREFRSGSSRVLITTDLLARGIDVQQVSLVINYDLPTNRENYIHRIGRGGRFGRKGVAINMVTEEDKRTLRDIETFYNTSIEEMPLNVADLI
T6 sequence (Q6ZQ93 whole entry): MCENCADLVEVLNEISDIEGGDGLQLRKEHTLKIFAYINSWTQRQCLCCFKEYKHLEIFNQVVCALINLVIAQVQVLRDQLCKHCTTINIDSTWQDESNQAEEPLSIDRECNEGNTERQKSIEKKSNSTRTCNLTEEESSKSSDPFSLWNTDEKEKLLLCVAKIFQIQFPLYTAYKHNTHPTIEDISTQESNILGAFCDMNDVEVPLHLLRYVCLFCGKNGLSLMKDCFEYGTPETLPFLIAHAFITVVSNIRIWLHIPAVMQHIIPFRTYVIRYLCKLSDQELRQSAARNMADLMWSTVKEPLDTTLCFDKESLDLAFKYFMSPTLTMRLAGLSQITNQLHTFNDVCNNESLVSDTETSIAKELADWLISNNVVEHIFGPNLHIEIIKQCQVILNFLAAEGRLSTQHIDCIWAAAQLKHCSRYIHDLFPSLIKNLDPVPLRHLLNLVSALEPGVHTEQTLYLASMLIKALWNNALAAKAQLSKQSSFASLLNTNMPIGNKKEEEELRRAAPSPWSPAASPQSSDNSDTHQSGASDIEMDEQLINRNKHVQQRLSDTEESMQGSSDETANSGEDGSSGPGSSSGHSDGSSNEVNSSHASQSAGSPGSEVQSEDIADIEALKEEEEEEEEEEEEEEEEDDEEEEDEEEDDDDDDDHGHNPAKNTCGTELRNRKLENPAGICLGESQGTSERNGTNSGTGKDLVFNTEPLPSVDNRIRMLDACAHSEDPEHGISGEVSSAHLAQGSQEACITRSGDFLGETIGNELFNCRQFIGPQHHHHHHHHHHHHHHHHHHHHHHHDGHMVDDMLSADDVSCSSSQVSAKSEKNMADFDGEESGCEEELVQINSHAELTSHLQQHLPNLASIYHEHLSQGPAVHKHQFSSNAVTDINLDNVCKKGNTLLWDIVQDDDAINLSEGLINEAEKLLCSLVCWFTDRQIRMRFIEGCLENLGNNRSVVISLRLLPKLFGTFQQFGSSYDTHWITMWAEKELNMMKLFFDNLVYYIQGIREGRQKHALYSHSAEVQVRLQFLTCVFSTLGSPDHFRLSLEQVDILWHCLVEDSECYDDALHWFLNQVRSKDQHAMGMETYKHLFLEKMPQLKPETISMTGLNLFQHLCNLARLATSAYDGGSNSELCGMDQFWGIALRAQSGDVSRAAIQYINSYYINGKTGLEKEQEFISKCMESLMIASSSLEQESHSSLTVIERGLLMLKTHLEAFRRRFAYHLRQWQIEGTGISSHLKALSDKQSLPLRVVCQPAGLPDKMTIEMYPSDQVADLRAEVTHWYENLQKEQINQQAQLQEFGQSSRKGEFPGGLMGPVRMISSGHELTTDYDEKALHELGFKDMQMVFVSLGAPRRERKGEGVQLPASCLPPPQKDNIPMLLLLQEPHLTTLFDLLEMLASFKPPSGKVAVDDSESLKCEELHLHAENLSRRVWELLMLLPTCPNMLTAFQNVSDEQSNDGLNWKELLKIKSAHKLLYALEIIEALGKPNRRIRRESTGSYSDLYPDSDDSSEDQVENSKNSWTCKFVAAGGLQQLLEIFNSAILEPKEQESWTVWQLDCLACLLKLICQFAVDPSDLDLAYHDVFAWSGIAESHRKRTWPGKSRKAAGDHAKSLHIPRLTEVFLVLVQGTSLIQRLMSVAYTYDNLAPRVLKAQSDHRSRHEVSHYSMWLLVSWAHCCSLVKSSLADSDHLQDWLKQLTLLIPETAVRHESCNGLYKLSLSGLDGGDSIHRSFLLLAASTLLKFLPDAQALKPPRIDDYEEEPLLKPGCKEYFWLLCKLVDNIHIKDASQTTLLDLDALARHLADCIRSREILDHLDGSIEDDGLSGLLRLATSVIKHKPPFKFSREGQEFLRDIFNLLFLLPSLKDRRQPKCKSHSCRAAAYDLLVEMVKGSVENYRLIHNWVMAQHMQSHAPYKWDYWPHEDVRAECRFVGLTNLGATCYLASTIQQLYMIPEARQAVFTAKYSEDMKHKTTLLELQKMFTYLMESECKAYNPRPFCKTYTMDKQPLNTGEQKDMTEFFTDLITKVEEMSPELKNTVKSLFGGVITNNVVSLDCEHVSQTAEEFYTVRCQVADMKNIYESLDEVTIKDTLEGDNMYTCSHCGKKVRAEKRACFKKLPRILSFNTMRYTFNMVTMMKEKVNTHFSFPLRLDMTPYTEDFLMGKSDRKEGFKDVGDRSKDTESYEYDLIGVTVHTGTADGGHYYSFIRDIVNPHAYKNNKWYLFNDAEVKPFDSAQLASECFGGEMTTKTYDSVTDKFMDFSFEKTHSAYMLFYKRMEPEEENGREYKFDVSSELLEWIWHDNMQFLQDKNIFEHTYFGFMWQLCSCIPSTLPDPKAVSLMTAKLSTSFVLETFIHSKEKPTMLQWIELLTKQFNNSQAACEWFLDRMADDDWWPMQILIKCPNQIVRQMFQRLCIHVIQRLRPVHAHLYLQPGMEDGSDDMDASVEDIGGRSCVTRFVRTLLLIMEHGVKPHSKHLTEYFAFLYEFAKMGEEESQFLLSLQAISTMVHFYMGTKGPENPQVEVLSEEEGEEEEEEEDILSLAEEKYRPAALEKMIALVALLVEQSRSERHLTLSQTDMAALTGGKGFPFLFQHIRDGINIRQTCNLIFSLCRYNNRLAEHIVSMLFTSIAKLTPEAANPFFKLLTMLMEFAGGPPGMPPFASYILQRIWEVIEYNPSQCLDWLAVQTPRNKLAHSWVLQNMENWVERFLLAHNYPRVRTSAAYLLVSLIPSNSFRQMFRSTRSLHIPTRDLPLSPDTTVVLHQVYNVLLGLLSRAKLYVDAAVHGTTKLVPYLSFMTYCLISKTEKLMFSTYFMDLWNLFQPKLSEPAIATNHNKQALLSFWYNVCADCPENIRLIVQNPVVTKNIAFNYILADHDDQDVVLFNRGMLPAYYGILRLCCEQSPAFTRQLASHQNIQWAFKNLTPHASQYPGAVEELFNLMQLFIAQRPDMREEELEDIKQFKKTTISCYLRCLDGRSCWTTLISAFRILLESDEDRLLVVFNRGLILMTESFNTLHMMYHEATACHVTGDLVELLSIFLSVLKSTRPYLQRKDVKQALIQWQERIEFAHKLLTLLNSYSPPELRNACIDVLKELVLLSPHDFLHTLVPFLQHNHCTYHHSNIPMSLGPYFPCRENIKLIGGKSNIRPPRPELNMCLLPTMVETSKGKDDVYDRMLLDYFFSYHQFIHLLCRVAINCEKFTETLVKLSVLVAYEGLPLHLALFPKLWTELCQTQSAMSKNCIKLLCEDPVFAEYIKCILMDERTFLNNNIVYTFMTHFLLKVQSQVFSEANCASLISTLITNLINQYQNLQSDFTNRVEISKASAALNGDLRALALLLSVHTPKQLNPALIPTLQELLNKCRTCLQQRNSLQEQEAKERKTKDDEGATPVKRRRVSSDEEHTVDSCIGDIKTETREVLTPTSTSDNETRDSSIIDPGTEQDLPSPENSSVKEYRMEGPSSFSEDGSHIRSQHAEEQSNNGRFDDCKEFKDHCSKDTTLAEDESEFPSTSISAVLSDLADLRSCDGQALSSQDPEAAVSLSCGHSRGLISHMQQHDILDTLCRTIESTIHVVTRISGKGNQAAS

TMT signal-to-noise ratio [1]: 454.155
TMT signal-to-noise ratio [2]: 285.885
TMT signal-to-noise ratio [3]: 136.49
TMT signal-to-noise ratio [4]: 361.157
TMT signal-to-noise ratio [5]: 294.957
TMT signal-to-noise ratio [6]: 1044.49
Substance: adipsin
